In patent US20220409751A1 (NORTHSTAR MEDICAL TECHNOLOGIES, published 2022):

Legend:
[1] = biological target: urokinase plasminogen activator receptor (uPAR) (UniProt Q03405); assay: direct binding assay
soluble uPAR (suPAR) = biological target: T1, soluble uPAR (suPAR) (UniProt Q03405 23-305, limits assumed); assay: SPR (Biacore 2000), antibody captured on protein A/G surface, suPAR as analyte, 25 C, 1:1 Langmuir fit
T1 construct: Analyte in the Biacore capture assay
Method: The HE™ variants were diluted to 1 μg/mL and injected over a protein A/G surface. Antibody injections were optimized to produce antibody densities of 100-200 RU.
Six serial 3-fold dilutions of soluble uPAR (suPAR) were prepared in running buffer (PBS), and each dilution was injected in triplicate in random order at 25° C. Buffer injections were evenly distributed throughout the run. The sample injections were double-referenced against the blank flow cells and buffer injections to correct for any bulk shift or non-specific binding. Data were analyzed with BiaEvaluation software from Biacore®. Sensorgrams were fit utilizing a 1:1 Langmuir model.

T1 sequence (Q03405 23-305 limits assumed): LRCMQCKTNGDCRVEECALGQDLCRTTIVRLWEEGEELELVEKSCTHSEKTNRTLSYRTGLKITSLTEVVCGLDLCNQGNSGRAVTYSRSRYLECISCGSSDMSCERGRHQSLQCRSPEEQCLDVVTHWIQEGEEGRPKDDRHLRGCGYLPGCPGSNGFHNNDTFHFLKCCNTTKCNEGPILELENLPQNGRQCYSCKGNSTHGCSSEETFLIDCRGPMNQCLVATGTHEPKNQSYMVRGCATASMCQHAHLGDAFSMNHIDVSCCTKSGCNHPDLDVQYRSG
urokinase plasminogen activator receptor (uPAR), sequence (Q03405 23-305 limits assumed): as above

mouse monoclonal antibody ATN-658
Kd [1]: 1 nM

B1: HE ™ ATN-1 (antibody, IgG1, V domains shown)
VH: EVQLVQSGPEVVKTGASVKISCKASGYSFTSYYMHWVKQAHGQGLEWIGEINPYNGGASYNQKIKGRATFTVDTSTRTAYMEFSSLRSEDTAVYYCARSIYGHSVLDYWGQGTLVTVSS
VL: DVVMTQSPLSLSVTIGEPASISCRSSQSLLDSDGKTYLNWLLQKPGQSPKRLIYLVSKRDSGVPDRFSGSGSGTDFTLKISRVEAEDVGVYYCWQGTHFPLTFGQGTKLEIK
notes: V regions cloned into transient expression vectors with human gamma-1 and kappa constant region modules (IgG1, kappa); made in HEK293E cells
Kd (soluble uPAR (suPAR)): 0.28 nM

B2: HE ™ ATN-2 (antibody, IgG1, V domains shown)
VH: EVQLVQSGPEVVKTGASVKISCKASGYSFTSYYMHWVKQAHGQGLEWIGEINPYNGGASYNQKIKGRATFTVDTSTRTAYMEFSSLRSEDTAVYYCARSIYGHSVLDYWGQGTLVTVSS
VL: DVVMTQSPLSLSVTIGEPASISCRSSQSLLDSDGKTYLNWLLQKPGQSPQRLIYLVSKRDSGVPDRFSGSGSGTDFTLKISRVEAEDVGVYYCWQGTHFPLTFGQGTKLEIK
notes: Human gamma-1 and kappa constant region modules (IgG1, kappa); made in HEK293E cells
Kd (soluble uPAR (suPAR)): 0.38 nM

B3: HE ™ ATN-3 (antibody, IgG1, V domains shown)
VH: EVQLVQSGPEVKKTGASVKISCKASGYSFTSYYMHWVRQAHGQGLEWIGEINPYNGGASYNQKIQGRATFTVDTSTSTAYMEFSSLRSEDTAVYYCARSIYGHSVLDYWGQGTLVTVSS
VL: DVVMTQSPLSLSVTIGEPASISCRSSQSLLDSDGKTYLNWLLQKPGQSPKRLIYLVSKRDSGVPDRFSGSGSGTDFTLKISRVEAEDVGVYYCWQGTHFPLTFGQGTKLEIK
notes: as for B2
Kd (soluble uPAR (suPAR)): 0.28 nM

B4: HE ™ ATN-4 (renamed MNPR-101) (antibody, human IgG1, kappa, V domains shown)
VH: EVQLVQSGPEVKKTGASVKISCKASGYSFTSYYMHWVRQAHGQGLEWIGEINPYNGGASYNQKIQGRATFTVDTSTSTAYMEFSSLRSEDTAVYYCARSIYGHSVLDYWGQGTLVTVSS
VL: DVVMTQSPLSLSVTIGEPASISCRSSQSLLDSDGKTYLNWLLQKPGQSPQRLIYLVSKRDSGVPDRFSGSGSGTDFTLKISRVEAEDVGVYYCWQGTHFPLTFGQGTKLEIKR
notes: IgG1 kappa; In the Biacore assay the transiently expressed (HEK293E), unconjugated antibody was used; also called mAb MNPR-101; humanized mAb MNPR-101
Kd (soluble uPAR (suPAR)): 0.39 nM
